In the Human Domainome abundance scans (Beltran et al. 2025):
± gives the uncertainty stated by the source.

B1: Proto-oncogene vav, residues 782 to 842; numbered along this chain, P15498 (parent)
chain: KYFGTAKARYDFCARDRSELSLKEGDIIKILNKKGQQGWWRGEIYGRVGWFPANYVEEDYS

Variants of: B1
Assay: abundance fitness (aPCA) (normalised: wild type 0, dead -1); higher = more abundant; growth selection in yeast, the domain comes from the species named
Settings: Homo sapiens
In the case of KYFGTAKARYDFCARDRSELSLKEGDIIKILNKKGQQGWWRGEIWGRVGWFPANYVEEDYS, the abundance fitness is reported as -0.101 ± 0.068.
For KYFGTAKARYDFCARDRSELSLKEGDIIKILNKKGQQGWWRGEIYARVGWFPANYVEEDYS, the abundance fitness was -0.731 ± 0.09.
With KYFGTAKARYDFCARDRSELSLKEGDIIKILNKKGQQGWWRGEIYCRVGWFPANYVEEDYS the abundance fitness was -0.784 ± 0.17.
For KYFGTAKARYDFCARDRSELSLKEGDIIKILNKKGQQGWWRGEIYDRVGWFPANYVEEDYS, the abundance fitness was -0.19 ± 0.098.
Work on KYFGTAKARYDFCARDRSELSLKEGDIIKILNKKGQQGWWRGEIYERVGWFPANYVEEDYS yielded an abundance fitness of -0.311 ± 0.063.
For KYFGTAKARYDFCARDRSELSLKEGDIIKILNKKGQQGWWRGEIYFRVGWFPANYVEEDYS, the abundance fitness was -0.942 ± 0.14.
KYFGTAKARYDFCARDRSELSLKEGDIIKILNKKGQQGWWRGEIYHRVGWFPANYVEEDYS showed an abundance fitness of -0.672 ± 0.16.
Work on KYFGTAKARYDFCARDRSELSLKEGDIIKILNKKGQQGWWRGEIYIRVGWFPANYVEEDYS yielded an abundance fitness of -0.766 ± 0.16.
Work on KYFGTAKARYDFCARDRSELSLKEGDIIKILNKKGQQGWWRGEIYKRVGWFPANYVEEDYS yielded an abundance fitness of -0.516 ± 0.12.
KYFGTAKARYDFCARDRSELSLKEGDIIKILNKKGQQGWWRGEIYLRVGWFPANYVEEDYS gave an abundance fitness of -0.67 ± 0.07.
For KYFGTAKARYDFCARDRSELSLKEGDIIKILNKKGQQGWWRGEIYMRVGWFPANYVEEDYS, the abundance fitness was -0.896 ± 0.12.
With KYFGTAKARYDFCARDRSELSLKEGDIIKILNKKGQQGWWRGEIYNRVGWFPANYVEEDYS the abundance fitness was -0.15 ± 0.098.
For KYFGTAKARYDFCARDRSELSLKEGDIIKILNKKGQQGWWRGEIYPRVGWFPANYVEEDYS, the abundance fitness was -0.387 ± 0.061.
Variant KYFGTAKARYDFCARDRSELSLKEGDIIKILNKKGQQGWWRGEIYQRVGWFPANYVEEDYS has an abundance fitness of -0.291 ± 0.082.
For KYFGTAKARYDFCARDRSELSLKEGDIIKILNKKGQQGWWRGEIYRRVGWFPANYVEEDYS, the abundance fitness was -0.671 ± 0.061.
In the case of KYFGTAKARYDFCARDRSELSLKEGDIIKILNKKGQQGWWRGEIYSRVGWFPANYVEEDYS, the abundance fitness is reported as -0.343 ± 0.067.
For KYFGTAKARYDFCARDRSELSLKEGDIIKILNKKGQQGWWRGEIYTRVGWFPANYVEEDYS, the abundance fitness was -0.542 ± 0.069.
With KYFGTAKARYDFCARDRSELSLKEGDIIKILNKKGQQGWWRGEIYVRVGWFPANYVEEDYS the abundance fitness was -0.748 ± 0.073.
Variant KYFGTAKARYDFCARDRSELSLKEGDIIKILNKKGQQGWWRGEIYWRVGWFPANYVEEDYS has an abundance fitness of -0.853 ± 0.1.
KYFGTAKARYDFCARDRSELSLKEGDIIKILNKKGQQGWWRGEIYYRVGWFPANYVEEDYS showed an abundance fitness of -1.01 ± 0.29.
With KYFGTAKARYDFCARDRSELSLKEGDIIKILNKKGQQGWWRGEIYGAVGWFPANYVEEDYS the abundance fitness was -0.268 ± 0.051.
KYFGTAKARYDFCARDRSELSLKEGDIIKILNKKGQQGWWRGEIYGDVGWFPANYVEEDYS gave an abundance fitness of -0.3 ± 0.09.
For KYFGTAKARYDFCARDRSELSLKEGDIIKILNKKGQQGWWRGEIYGFVGWFPANYVEEDYS, the abundance fitness was -0.788 ± 0.16.
With KYFGTAKARYDFCARDRSELSLKEGDIIKILNKKGQQGWWRGEIYGGVGWFPANYVEEDYS the abundance fitness was -0.628 ± 0.081.
Variant KYFGTAKARYDFCARDRSELSLKEGDIIKILNKKGQQGWWRGEIYGHVGWFPANYVEEDYS has an abundance fitness of -0.226 ± 0.087.
In the case of KYFGTAKARYDFCARDRSELSLKEGDIIKILNKKGQQGWWRGEIYGKVGWFPANYVEEDYS, the abundance fitness is reported as -0.051 ± 0.16.
With KYFGTAKARYDFCARDRSELSLKEGDIIKILNKKGQQGWWRGEIYGLVGWFPANYVEEDYS the abundance fitness was -0.493 ± 0.043.
For KYFGTAKARYDFCARDRSELSLKEGDIIKILNKKGQQGWWRGEIYGMVGWFPANYVEEDYS, the abundance fitness was -0.393 ± 0.16.
KYFGTAKARYDFCARDRSELSLKEGDIIKILNKKGQQGWWRGEIYGNVGWFPANYVEEDYS showed an abundance fitness of -0.276 ± 0.14.
For KYFGTAKARYDFCARDRSELSLKEGDIIKILNKKGQQGWWRGEIYGPVGWFPANYVEEDYS, the abundance fitness was -0.86 ± 0.12.
KYFGTAKARYDFCARDRSELSLKEGDIIKILNKKGQQGWWRGEIYGQVGWFPANYVEEDYS showed an abundance fitness of -0.065 ± 0.069.
For KYFGTAKARYDFCARDRSELSLKEGDIIKILNKKGQQGWWRGEIYGSVGWFPANYVEEDYS, the abundance fitness was -0.297 ± 0.053.
Variant KYFGTAKARYDFCARDRSELSLKEGDIIKILNKKGQQGWWRGEIYGTVGWFPANYVEEDYS has an abundance fitness of -0.313 ± 0.12.
KYFGTAKARYDFCARDRSELSLKEGDIIKILNKKGQQGWWRGEIYGVVGWFPANYVEEDYS gave an abundance fitness of -0.367 ± 0.049.
With KYFGTAKARYDFCARDRSELSLKEGDIIKILNKKGQQGWWRGEIYGWVGWFPANYVEEDYS the abundance fitness was -0.841 ± 0.11.
Work on KYFGTAKARYDFCARDRSELSLKEGDIIKILNKKGQQGWWRGEIYGYVGWFPANYVEEDYS yielded an abundance fitness of -0.503 ± 0.089.
KYFGTAKARYDFCARDRSELSLKEGDIIKILNKKGQQGWWRGEIYGRAGWFPANYVEEDYS gave an abundance fitness of -0.156 ± 0.045.
In the case of KYFGTAKARYDFCARDRSELSLKEGDIIKILNKKGQQGWWRGEIYGRCGWFPANYVEEDYS, the abundance fitness is reported as -0.194 ± 0.074.
KYFGTAKARYDFCARDRSELSLKEGDIIKILNKKGQQGWWRGEIYGRDGWFPANYVEEDYS showed an abundance fitness of -0.499 ± 0.11.
Variant KYFGTAKARYDFCARDRSELSLKEGDIIKILNKKGQQGWWRGEIYGREGWFPANYVEEDYS has an abundance fitness of -0.07 ± 0.05.
For KYFGTAKARYDFCARDRSELSLKEGDIIKILNKKGQQGWWRGEIYGRHGWFPANYVEEDYS, the abundance fitness was -0.405 ± 0.14.
Work on KYFGTAKARYDFCARDRSELSLKEGDIIKILNKKGQQGWWRGEIYGRKGWFPANYVEEDYS yielded an abundance fitness of -0.071 ± 0.1.
For KYFGTAKARYDFCARDRSELSLKEGDIIKILNKKGQQGWWRGEIYGRLGWFPANYVEEDYS, the abundance fitness was -0.347 ± 0.086.
Variant KYFGTAKARYDFCARDRSELSLKEGDIIKILNKKGQQGWWRGEIYGRMGWFPANYVEEDYS has an abundance fitness of -0.312 ± 0.1.
